This is an account of results in patent US20100184658A1 (published 2010).

Targets include MAP4K4 (HGK) (UniProt O95819 1-328, limits assumed); CLK2 (UniProt P49760 1-499, limits assumed); ROCK2 (UniProt O75116 5-554, limits assumed); RPS6KA5 (MSK1) (UniProt O75582 1-802, limits assumed).
Holding throughout (assay): cell-based or functional assay
Another assay concerns the target T1, IKBKB (IKK beta) IKK2 (human (printed as (h)), UniProt O14920 1-756, limits assumed).
T1 sequence (looked up): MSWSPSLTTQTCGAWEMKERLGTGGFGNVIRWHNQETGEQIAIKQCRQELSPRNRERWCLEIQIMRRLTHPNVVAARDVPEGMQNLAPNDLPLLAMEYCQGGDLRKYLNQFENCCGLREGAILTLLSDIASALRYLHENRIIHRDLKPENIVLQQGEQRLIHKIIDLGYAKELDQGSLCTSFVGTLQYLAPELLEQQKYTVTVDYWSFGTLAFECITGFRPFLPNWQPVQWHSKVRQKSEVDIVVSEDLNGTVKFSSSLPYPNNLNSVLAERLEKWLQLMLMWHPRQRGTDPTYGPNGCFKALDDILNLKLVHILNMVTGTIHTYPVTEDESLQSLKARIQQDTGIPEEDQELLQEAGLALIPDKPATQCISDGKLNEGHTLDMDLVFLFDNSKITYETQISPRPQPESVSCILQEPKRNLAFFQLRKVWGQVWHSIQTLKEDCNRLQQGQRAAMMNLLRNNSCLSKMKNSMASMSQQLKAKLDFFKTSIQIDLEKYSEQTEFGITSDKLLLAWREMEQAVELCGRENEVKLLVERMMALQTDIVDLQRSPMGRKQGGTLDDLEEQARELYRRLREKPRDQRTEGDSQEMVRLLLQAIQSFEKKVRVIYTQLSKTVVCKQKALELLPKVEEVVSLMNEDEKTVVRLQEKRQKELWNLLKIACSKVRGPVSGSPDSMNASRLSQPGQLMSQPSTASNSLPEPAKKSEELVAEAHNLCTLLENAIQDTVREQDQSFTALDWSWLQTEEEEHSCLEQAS

Another assay concerns the target T2, ADRBK1 (GRK2) (UniProt P25098 1-689, limits assumed).
T2 sequence (looked up): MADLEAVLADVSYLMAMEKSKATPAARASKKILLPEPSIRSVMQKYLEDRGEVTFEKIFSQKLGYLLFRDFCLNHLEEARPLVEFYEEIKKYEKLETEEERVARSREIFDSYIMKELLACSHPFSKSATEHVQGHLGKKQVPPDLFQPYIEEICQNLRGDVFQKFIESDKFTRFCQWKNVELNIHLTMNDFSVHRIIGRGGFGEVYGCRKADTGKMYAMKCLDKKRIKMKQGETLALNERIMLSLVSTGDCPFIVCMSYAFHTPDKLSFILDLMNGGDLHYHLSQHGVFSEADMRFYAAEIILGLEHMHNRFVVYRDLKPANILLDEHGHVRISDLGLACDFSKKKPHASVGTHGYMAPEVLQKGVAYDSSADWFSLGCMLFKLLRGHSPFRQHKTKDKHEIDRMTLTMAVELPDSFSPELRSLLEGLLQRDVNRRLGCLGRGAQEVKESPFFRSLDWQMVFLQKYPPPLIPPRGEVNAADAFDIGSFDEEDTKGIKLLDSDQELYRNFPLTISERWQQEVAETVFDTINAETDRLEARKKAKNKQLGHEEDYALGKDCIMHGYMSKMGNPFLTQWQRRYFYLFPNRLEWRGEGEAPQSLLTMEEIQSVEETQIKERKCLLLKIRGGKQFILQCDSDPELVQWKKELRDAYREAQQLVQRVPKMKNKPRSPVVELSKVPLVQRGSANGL

Assay [1] addresses T3, CAMK4 (CaMKIV) Calcium/calmodulin-dependent protein kinase IV (UniProt Q16566 1-473, limits assumed).
T3 sequence (looked up): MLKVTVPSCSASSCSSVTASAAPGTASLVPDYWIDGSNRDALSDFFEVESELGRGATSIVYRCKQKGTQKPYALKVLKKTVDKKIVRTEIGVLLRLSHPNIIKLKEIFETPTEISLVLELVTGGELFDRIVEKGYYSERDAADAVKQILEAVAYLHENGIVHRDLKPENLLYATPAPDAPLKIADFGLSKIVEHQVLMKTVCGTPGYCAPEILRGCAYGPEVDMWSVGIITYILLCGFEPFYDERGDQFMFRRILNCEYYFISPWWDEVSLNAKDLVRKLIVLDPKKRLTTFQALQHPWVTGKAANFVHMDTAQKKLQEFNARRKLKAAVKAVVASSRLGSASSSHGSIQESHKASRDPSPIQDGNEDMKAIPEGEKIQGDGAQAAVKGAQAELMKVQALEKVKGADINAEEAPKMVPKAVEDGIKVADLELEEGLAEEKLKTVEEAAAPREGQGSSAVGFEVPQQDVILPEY

Another assay has as its target T4, NEK2 (UniProt P51955 1-445, limits assumed).
T4 sequence (looked up): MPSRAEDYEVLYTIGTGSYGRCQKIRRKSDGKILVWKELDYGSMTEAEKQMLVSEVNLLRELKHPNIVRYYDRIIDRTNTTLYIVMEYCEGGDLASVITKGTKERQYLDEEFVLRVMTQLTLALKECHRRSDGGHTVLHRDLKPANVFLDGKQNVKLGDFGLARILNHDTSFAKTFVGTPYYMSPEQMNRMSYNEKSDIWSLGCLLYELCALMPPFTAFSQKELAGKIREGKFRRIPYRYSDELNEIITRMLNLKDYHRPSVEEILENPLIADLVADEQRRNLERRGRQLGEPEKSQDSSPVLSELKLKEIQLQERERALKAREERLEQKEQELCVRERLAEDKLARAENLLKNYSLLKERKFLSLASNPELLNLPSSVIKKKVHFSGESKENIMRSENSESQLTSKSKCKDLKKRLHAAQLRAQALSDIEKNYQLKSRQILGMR

The target of assay [2] is TEK (Tie2) Tyrosine kinase, endothelial (UniProt Q02763 771-1124, limits assumed).
TEK (Tie2) Tyrosine kinase, endothelial, sequence (Q02763 771-1124 limits assumed): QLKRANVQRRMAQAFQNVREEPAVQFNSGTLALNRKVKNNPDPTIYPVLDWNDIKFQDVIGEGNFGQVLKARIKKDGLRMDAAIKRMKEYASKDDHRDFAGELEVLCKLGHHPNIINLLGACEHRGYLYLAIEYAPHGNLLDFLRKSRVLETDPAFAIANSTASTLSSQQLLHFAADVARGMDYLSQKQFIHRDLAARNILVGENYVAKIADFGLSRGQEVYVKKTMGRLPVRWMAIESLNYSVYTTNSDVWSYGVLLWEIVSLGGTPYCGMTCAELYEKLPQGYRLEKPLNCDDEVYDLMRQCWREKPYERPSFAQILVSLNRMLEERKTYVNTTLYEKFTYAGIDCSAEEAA
Further: test concentration or dose not given here.

ROCK2, sequence (O75116 5-554 limits assumed): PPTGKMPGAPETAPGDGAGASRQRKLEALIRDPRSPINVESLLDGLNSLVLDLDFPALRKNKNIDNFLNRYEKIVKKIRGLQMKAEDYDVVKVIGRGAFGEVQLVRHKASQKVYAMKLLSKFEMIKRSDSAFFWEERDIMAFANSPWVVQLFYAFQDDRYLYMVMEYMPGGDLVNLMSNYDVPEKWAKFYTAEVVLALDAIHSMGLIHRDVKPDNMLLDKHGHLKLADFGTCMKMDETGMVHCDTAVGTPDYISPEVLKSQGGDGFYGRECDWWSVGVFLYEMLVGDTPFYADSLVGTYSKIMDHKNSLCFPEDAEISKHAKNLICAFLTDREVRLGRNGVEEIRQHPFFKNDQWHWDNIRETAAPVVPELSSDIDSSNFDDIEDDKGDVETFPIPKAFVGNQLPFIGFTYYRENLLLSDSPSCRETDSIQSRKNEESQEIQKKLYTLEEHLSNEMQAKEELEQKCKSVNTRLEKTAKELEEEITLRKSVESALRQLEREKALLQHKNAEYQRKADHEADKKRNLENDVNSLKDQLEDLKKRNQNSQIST
CLK2, sequence (P49760 whole entry): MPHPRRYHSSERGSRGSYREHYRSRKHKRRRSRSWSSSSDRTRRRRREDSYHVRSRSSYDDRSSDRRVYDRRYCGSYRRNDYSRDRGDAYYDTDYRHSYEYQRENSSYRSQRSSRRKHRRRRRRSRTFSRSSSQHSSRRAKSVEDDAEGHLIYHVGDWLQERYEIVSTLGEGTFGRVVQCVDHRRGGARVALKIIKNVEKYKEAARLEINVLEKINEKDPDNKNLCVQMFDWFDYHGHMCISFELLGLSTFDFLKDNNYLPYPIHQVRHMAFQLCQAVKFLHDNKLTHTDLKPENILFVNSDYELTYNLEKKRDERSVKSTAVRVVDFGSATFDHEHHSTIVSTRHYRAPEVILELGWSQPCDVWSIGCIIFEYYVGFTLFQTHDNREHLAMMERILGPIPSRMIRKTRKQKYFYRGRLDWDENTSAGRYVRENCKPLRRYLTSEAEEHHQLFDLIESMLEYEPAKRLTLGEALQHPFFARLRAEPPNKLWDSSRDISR
RPS6KA5 (MSK1), sequence (O75582 whole entry): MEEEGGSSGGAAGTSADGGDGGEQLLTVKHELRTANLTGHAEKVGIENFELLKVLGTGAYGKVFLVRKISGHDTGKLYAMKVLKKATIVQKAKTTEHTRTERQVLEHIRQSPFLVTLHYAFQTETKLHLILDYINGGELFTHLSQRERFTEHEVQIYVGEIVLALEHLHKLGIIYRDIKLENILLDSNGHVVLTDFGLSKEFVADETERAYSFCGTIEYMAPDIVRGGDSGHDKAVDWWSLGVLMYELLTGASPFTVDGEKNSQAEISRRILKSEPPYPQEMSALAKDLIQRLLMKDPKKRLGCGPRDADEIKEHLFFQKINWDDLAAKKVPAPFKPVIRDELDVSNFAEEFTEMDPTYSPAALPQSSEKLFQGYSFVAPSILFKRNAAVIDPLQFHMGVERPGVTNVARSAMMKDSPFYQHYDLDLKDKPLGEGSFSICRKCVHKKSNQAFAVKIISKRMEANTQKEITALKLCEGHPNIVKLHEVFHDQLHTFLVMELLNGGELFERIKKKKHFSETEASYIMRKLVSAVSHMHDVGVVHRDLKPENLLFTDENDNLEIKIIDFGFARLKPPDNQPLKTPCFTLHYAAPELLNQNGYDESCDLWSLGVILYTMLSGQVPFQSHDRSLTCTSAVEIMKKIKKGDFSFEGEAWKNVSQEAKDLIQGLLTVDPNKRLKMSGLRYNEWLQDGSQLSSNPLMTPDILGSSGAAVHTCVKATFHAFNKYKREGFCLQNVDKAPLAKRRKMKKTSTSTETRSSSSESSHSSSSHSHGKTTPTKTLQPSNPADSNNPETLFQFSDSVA
MAP4K4 (HGK), sequence (O95819 1-328 limits assumed): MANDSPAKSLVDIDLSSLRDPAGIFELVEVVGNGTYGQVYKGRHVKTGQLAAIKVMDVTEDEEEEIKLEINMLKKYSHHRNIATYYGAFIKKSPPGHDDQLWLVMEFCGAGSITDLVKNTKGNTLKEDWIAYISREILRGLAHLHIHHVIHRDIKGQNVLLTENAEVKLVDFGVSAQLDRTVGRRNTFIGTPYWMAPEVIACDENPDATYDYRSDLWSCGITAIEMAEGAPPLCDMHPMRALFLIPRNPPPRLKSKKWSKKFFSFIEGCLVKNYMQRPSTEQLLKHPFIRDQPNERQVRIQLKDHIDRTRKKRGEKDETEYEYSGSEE

Turning to SGRPPMIVWFNRPFLIAVSHTHGQTILFMAKVINPVGA [D3 peptide], the “% Inhibition mean” value with IKBKB (IKK beta) IKK2 stood at 41%; with MAP4K4 (HGK) it was 100%; with ADRBK1 (GRK2), 56.1%; in the assay with CLK2 it was 65.9%; in assay [1], 99.6%; with NEK2, 89.6%. Moreover, the results for the “% Inhibition mean” value (in assay [2]; with ROCK2; with RPS6KA5 (MSK1)) were 67%, 66.7% and 85%, respectively.
